From patent US20250034594A1, “RNA-GUIDED GENOME RECOMBINEERING AT KILOBASE SCALE” (THE BOARD OF TRUSTEES OF THE LELAND STANFORD JUNIOR …, priority 2021, published 2025)

Key:
Format in all cases: cell-based
[1] = system: gene editing with Cas9 and dCas9; test: Screen of 322 new SSAP proteins, activity across all experiments (Cas9 and dCas9, Table 5); design: scale not given here
Procedure, shortened: (§1)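 Synthetic SSAP candidates, identified computationally, were tested in editing screens using both Cas9 and dCas9.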

[2] = system: mammalian cells; test: Arrayed SSAP library screening, cell viability by live cell counts via flow cytometry
Experimental: (§2) Each SSAP encoding plasmid was tested in duplicate, including a negative control (same plasmid encoding Flag_HA which is not expected to promote gene editing). Transfections were in 96-well plates and transfection efficiency was estimated to be 50%.
(§3) Three days after transfection, mKate positive cells and cell viability were quantified across all replicates, along with positive (original RecT SSAP) and negative (Flag-HA control protein) controls. […] At the same time, the cell viability was measured by live cell counts via flow cytometry, to help quantify the fitness effect of SSAP on mammalian cells.
(§4) SSAP proteins are identified by Uniparc deposit number and SEQ ID NO. Alignment numbers correspond to SSAPs in FIGS. 58, 59, and 60.

[3] = system: gene editing with Cas9; test: Screen of 322 new SSAP proteins, gene editing activity with Cas9 (Table 5); design: Cas9 with SSAP activity: scale not given here
Procedure, shortened: as §1

[4] = system: gene editing with dCas9; test: Screen of 322 new SSAP proteins, gene editing activity with dCas9 (Table 5); design: dCas9 with SSAP activity: scale not given here
Procedure, shortened: as §1

[5] = system: endogenous genome targets (ACTB, HSP90AA1); test: Arrayed SSAP library screening, mKate knock-in assay (editing efficiency); conditions: average of HSP90 and ACTB, 3 days after transfection; for Editing Efficiency (Normalized, Average, two targets): fold over negative control (Flag_HA); for Editing Efficiency (Absolute, Average, two targets): percent of mKate knock-in
Experimental: Arrayed SSAP library screening on endogenous genome targets (ACTB. HSP90AA1) using mKate knock-in assay.
SSAP-encoding plasmids were purified and quantified.
as §2, §3, §4

B1: SSAP_184: SEQ ID NO: 353; Streptomyces scabiei (protein, listed as Streptomyces scabiei)
chain: DADRMARIALTLIRKNPDLATCSGESFLGALMTCSQLGFEPGSPTQEAFIVPYKGEATFQLGYQGMVTLFYQHPMASSVKVETVRENDYFEHEEGLEEKLVHRPCKTGPRGKAIAYYSVARLINGGRTFKVMYPAEIEERREKLPSKNSPAWRNSYDEMAKKTVLRNHFKALPKSAELARAMAHDGTVRTDWQPDAIDVPPEYLSEPQRPELGTGSTQ
Activity across all experiments [1]: −1.873
Cell Viability (Average, two targets) [2]: 0.7361
Cas9 with SSAP activity [3]: −0.836
Cas9 with SSAP activity (normalized) [3]: −0.308
dCas9 with SSAP activity [4]: −2.910
dCas9 with SSAP activity (normalized) [4]: −0.482
Editing Efficiency (Normalized, Average, two targets) [5]: 5.689
Editing Efficiency (Absolute, Average, two targets) [5]: 14.075

B2: SSAP_172: SEQ ID NO: 341; Staphylococcus pettenkoferi (protein, listed as Staphylococcus pettenkoferi)
chain: ATQKDFKNQISQKETQQKQEVQKKKKGPRQQVSDLLDRMAPEIEKALPNHLSADRMARVAMTAVSSNPKLLECDPKSFIGAVMQSAQLGLEPNTALGEAYLVPYAGKVNFQLSYLGLINLATRSGQYKAIYAHEVYAEDEFRYQYGLHKDLIHKPVDNPKGKPIGYYAVYHLLNGGYDFVYWTTERIQKHAKKYSFAVQKGYQSPWNDEFDAMAKKTVLKDLLKYAPKSIEMNNAVRSDDKQSELSDEGVVIDVTNYDEENGEEK
Activity across all experiments [1]: −3.822
Cell Viability (Average, two targets) [2]: 0.9046
Cas9 with SSAP activity [3]: −2.356
Cas9 with SSAP activity (normalized) [3]: −0.702
dCas9 with SSAP activity [4]: −5.287
dCas9 with SSAP activity (normalized) [4]: −0.724
Editing Efficiency (Normalized, Average, two targets) [5]: 4.239
Editing Efficiency (Absolute, Average, two targets) [5]: 10.4925

B3: SSAP_192: SEQ ID NO: 361; Streptococcus pyogenes (protein)
chain: SDLSVAAAAAKTQPTMKDLVEAQLPAIERQLGGAMNSAAFVRAVLSEIGKSPDLMAADPKTLLGGVMLAAQLRLEIGSGLGEFYLTPRKERGRQICLPIIGYQGLIKLALRSEFVMNVQAFLVRQGDQFSYGANAERGMFYDWVPQDFEETRDWIGVVATARMRSGGTTWVYLTRTQVIDRRPSYWNSTPWKTNEDEMVKKTAVRALAKFLPKSTDLGRALEADEAKVQTLRGLDEVEVTRLDDEADTVVVQEQNPMSRTPEEQAEDAEAQR
modifications: Streptococcus pyogenes
Cell Viability (Average, two targets) [2]: 1.071
Editing Efficiency (Normalized, Average, two targets) [5]: 5.372
Editing Efficiency (Absolute, Average, two targets) [5]: 13.3

B4: SSAP_190: SEQ ID NO: 359; Microbacterium laevaniformans OR221 (protein)
chain: TDLSTVAAAAKQNPTMKDLVEAQLPAIERQLGGTMNSDAFVRAVLSEITKSPDLMQADPKTLLGGVMLAAQLRLEIGSGLGEFYLTPRKDHGRMICLPIVGFQGMVKLALRSEFVTNVQAFIVREGDDFTYGANAERGMFYDWTPKDFEEKRPMVGVVATARMKQGGTTWAYLTREQVEDRRPSYWQKTPWGSHPDEMAKKTAVRALAKYLPKATDLGRAIEADEQKVQHVKGLDEVTVTRLDDEPETVVVQETTDAWAATPVAEVQP
modifications: Microbacterium laevaniformans
notes: Microbacterium laevaniformans OR221
Cell Viability (Average, two targets) [2]: 1.044
Editing Efficiency (Normalized, Average, two targets) [5]: 5.26
Editing Efficiency (Absolute, Average, two targets) [5]: 13.025

B5: SSAP_288: SEQ ID NO: 457; Clostridium thermobutyricum (protein, listed as Clostridium thermobutyricum)
chain: QSTGDIVFPQNYNYSNALKSAQLILAETVDRNKVPVLQSCSKPSICNALLDMVIQGLSPAKKQCYFVPYGGKLQLMKSYLGNIAATKRLKGVKDVFANVIYEGDVFEYKLNLNTGLIEIEKHEQKFENISKKILGAYAVVVRENQNNYVEVMNIEQIKNAWNQGAAKGNSQAHKNFAEEMAKKTVINRACKRFVNTSDDSDTLIESINRTNEYKEEDIIETTKSEVGEEIKENANTENLGLEDTEVVEAEVIENIEFEGDK
Cell Viability (Average, two targets) [2]: 0.6836
Editing Efficiency (Normalized, Average, two targets) [5]: 3.832
Editing Efficiency (Absolute, Average, two targets) [5]: 9.4725

B6: SSAP_191: SEQ ID NO: 360 in b312 (Table 9 prints 354); Microbacterium sp. K41 (protein, listed as Microbacterium sp.)
chain: SKDLSTAAAAAKSQPTMKDLVEAQLPAIERQLGGAMNSDAFVRAVLSEIGKSPDLMNADPKTLLGGVMLAAQLRLEIGSGLGEFYLTPRKDRGRQICLPIIGYQGMIKLALRSEYVLNVQAFLVREGDDFTYGGNSERGMFYDWTPKDFEESRPWIGVVATAKMRGGGTTWVYLTRTQVIDRRPSYWASTPWKTNEDEMVKKTAVRALAKFLPKSTDLGRALEADEAKVQHLKGVDEVQVTRLDDDAETFVVQEQDPMSRTPEEQAEDEANR
Cell Viability (Average, two targets) [2]: 1.129
Editing Efficiency (Normalized, Average, two targets) [5]: 4.75
Editing Efficiency (Absolute, Average, two targets) [5]: 11.75

B7: SSAP_210: SEQ ID NO: 379; Rufibacter latericius (protein, listed as Rufibacter latericius)
chain: SNQLQVAREQVISAQKSFKNVPNNKLDFEREAGFAMQMIQSNPFLASMDANSIRNCIVNVALTGLTLNPVLKLAYLVPRKGKLILDPSYMGLINVLVTSGAAKKIEADVVCENDFFDYEKGTNGFIKHKPSLSSRGEIIAAYAIAHLPNGEVQFEIMNREELEKVRKSSEAAKKGSSPYDGWASEMMRKAPIRRLFKYLPKHNIPDQVINTLSLDEQNNGVDFSAQKQEAFKGKAADFFEDEPANTVDADYTDMSHEEADNELAA
Cell Viability (Average, two targets) [2]: 0.408
Editing Efficiency (Normalized, Average, two targets) [5]: 6.484
Editing Efficiency (Absolute, Average, two targets) [5]: 16.05

B8: SSAP_20: SEQ ID NO: 189; CK3_26380 butyrate-producing bacterium SS3/4 (protein)
chain: ENATAVQQAESQGTQDFSAPVKHNTDFSLGIFGSSDNFLMATQMAKAFASSTIVPKEYQGNFANGLVAMDIANRLKTSPFMVMQNLDVIQGRPAWRATFLIAMINRSKKYDIELQFEEKRDKNGKPYSCTCWTTKDGRKVTGIEVTMDMAEAEGWTKKNGSKWITMPQVMLRYRAASFFSRMNCPELSNGLYTTDEVYEMADSEYKVYNLEDEVKRDLAQNANKEEFVAPPNETAPESESKGSEPLDPAVENQKSGDTPDWMKPETM
modifications: butyrate-producing bacterium SS3/4
Activity across all experiments [1]: −2.181
Cell Viability (Average, two targets) [2]: 1.174
Cas9 with SSAP activity [3]: −0.183
Cas9 with SSAP activity (normalized) [3]: −0.399
dCas9 with SSAP activity [4]: −4.179
dCas9 with SSAP activity (normalized) [4]: −0.615
Editing Efficiency (Normalized, Average, two targets) [5]: 5.982
Editing Efficiency (Absolute, Average, two targets) [5]: 14.85

B9: SSAP_211: SEQ ID NO: 380; unclassified Streptomyces (protein, listed as Streptomyces sp.)
chain: SQIGNAIATRDEGPAAQIEVYRDEYAALVPSHVNADQWVRLAVGAIRGNDDLLKAAGNDIGLFLREMKTAARLGLEPGTEQFYLTPRKSKAHGGRPVIKGIVGYQGIVELIYRAGAASTVIVEAVRQNDVFRYVPGRDDRPVHEIDWFGQDRGPLVGVYAYAVMKDGAVSKVVVLNKARVMELKAKSDSKNSPYSPWNTNEEAMWLKSGVRQLAKWVPTSAEFRRDQLLAHTDTADGVIASVSAPPLPPQSAALEDLDPDDEGPIDGELLDD
Activity across all experiments [1]: −1.297
Cell Viability (Average, two targets) [2]: 0.3563
Cas9 with SSAP activity [3]: 2.771
Cas9 with SSAP activity (normalized) [3]: 4.679
dCas9 with SSAP activity [4]: −5.365
dCas9 with SSAP activity (normalized) [4]: −0.904
Editing Efficiency (Normalized, Average, two targets) [5]: 5.517
Editing Efficiency (Absolute, Average, two targets) [5]: 13.65

B10: SSAP_220: SEQ ID NO: 389; Amycolatopsis circi (protein, listed as Amycolatopsis circi)
chain: ISQTVTTAVAQQKDSSPAALVRKYRTDFATVLPSHIKPETWLRIATGALRRSPQLANAAKRNPSSLLVALLEAARKGLEPGTEQFYLVPRKGKNGPEVLGITGYQGEVELMYRAGAVSSVKVEVVREHDTFAYNPGEHDRPVHEIDWRADRGDLVLTYAYAVMRDGATSNVVVLSADDIAVILKKADGADSPFSPWQWNPKAMWLKSAARQLAKWVPTSAEYVRLPDVPLESLPPAKPLDLPRVDDVVDAEIVEDWPTAPDDTADGAR
Cell Viability (Average, two targets) [2]: 0.9152
Editing Efficiency (Normalized, Average, two targets) [5]: 4.599
Editing Efficiency (Absolute, Average, two targets) [5]: 11.375

B11: SSAP_235: SEQ ID NO: 404; Streptomyces sp. adm13(2018) (protein, listed as Streptomyces sp.)
chain: SQIGNEIARQSHSPAAIIEQHKADLAVVAASHVRVDTFARLAVGVLRQNEKLAAAAANNPGSLMSALMTAARLGLEPGTEQFYLRPIKRKGQLEVQGIVGYQGIVELIYNAGAAQSVVVEVVRARDEFAWTPGALDEHRPPRWPGAMKQPHHKVDWFGDRGPLVGAYAYAVMQGGAISKVVVLNRDHIARAKAKSDGADTDYSPWRTDEEAMWLKTAARRLGKWVPTSAEKRTGVIERLDTPPAPLNEIDPDEDDEPIDGELVD
Activity across all experiments [1]: −5.237
Cell Viability (Average, two targets) [2]: 0.8847
Cas9 with SSAP activity [3]: −5.016
Cas9 with SSAP activity (normalized) [3]: −0.970
dCas9 with SSAP activity [4]: −5.457
dCas9 with SSAP activity (normalized) [4]: −1.152
Editing Efficiency (Normalized, Average, two targets) [5]: 4.251
Editing Efficiency (Absolute, Average, two targets) [5]: 10.53
